The results in this text go back to PMC6405316 (Nature, 2019).

For assay [1], the target named is KCTD12 H1 domain (residues 200–325) (human) (UniProt Q96CX2). In words: SEC.
Assay [2] addresses His6-SMT3-tagged KCTD16 BTB domain (residues 23–124) (human, UniProt Q68DU8 23-124). In words: pull-down.
For assay [3], the target named is KCTD16 BTB domain wild-type (residues 23–124), SMT3 tag cleaved with ULP1 (human, UniProt Q68DU8 23-124). The experiment in a line: pull-down.
Assay [4] addresses His6-GST-tagged KCTD12 32–325 (human, UniProt Q96CX2 32-325). The experiment in a line: pull-down.
The target of assay [5] is KCTD12 32–325, His6-GST tag cleaved by 3C protease (human, UniProt Q96CX2 32-325). In words: SEC.
Sequence of KCTD12 32–325, His6-GST tag cleaved by 3C protease (Q96CX2 32-325): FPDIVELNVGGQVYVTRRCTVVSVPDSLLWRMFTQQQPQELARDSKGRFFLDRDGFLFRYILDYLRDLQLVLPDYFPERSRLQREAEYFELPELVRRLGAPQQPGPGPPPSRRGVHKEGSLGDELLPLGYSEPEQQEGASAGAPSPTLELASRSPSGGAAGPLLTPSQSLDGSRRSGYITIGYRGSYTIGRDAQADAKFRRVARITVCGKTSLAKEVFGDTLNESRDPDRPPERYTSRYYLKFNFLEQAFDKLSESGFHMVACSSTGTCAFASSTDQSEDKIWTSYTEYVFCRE
Assay [6] concerns the target KCTD16 21–279, His6-GST tag cleaved by 3C protease (human, UniProt Q68DU8 21-279). In words: SEC.

Sequence of KCTD16 21–279, His6-GST tag cleaved by 3C protease (Q68DU8 21-279): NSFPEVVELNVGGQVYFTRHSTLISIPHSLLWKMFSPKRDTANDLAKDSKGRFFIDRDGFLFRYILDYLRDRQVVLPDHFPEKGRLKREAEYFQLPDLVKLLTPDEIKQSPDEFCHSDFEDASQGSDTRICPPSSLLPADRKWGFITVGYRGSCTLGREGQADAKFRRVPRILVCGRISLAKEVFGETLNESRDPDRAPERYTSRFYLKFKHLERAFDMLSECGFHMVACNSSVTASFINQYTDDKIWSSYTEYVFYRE
Sequence of KCTD12 H1 domain (residues 200–325) (human) (Q96CX2 200-325): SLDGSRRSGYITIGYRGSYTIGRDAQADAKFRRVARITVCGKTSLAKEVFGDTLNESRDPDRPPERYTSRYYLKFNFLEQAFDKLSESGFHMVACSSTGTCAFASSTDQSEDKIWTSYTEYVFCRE
Sequence of His6-SMT3-tagged KCTD16 BTB domain (residues 23–124) (Q68DU8 23-124): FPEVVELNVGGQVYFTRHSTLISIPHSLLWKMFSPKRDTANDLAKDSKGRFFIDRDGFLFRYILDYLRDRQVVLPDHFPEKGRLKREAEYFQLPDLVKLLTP
Sequence of KCTD16 BTB domain wild-type (residues 23–124), SMT3 tag cleaved with ULP1 (Q68DU8 23-124): as above
Sequence of His6-GST-tagged KCTD12 32–325 (Q96CX2 32-325): as the sequence (Q96CX2 32-325) above

Molecule “Human Gβ1γ2 heterodimer (His6-Gβ1, Gγ2 C68S) (from UniProt P62873;P59768) (complex)” yielded a stoichiometry N (Gβγ per KCTD12H1 chain (5:5)) in assay [1] of 1.
Take KDPIEDINSPEHIQRRLSLQLPILHHAYLPSIGGVDAS [His6-GST-tagged GABAB2 C-terminal fragment (residues 876–913)]: the binding result in assay [2] and in assay [3] was “binds” throughout.
On to KDPIEDINSPEHIQRRLSLQLPILHHAYLPSIGGVDAS [His6-SUMO-tagged GABAB2 876–913], for which the binding result in assay [4] is “binds”.
With KDPIEDINSPEHIQRRLSLQLPILHHAYLPSIGGVDAS [GABAB2 876–913, His6-SUMO tag cleaved by 3C protease], the binding result in assay [5] and in assay [6] was “binds” in each case.
